Earlier results, collected in paper PMC5487772.
Where two headings read alike, the source gives them in different places.

Tests used:
phosphacan [1] = target: phosphacan (UniProt Q62656)
phosphacan [2] = target: phosphacan (UniProt Q62656); remark: listed apart in the source

Chain of UniProt Q62656 (Q62656 25-1637): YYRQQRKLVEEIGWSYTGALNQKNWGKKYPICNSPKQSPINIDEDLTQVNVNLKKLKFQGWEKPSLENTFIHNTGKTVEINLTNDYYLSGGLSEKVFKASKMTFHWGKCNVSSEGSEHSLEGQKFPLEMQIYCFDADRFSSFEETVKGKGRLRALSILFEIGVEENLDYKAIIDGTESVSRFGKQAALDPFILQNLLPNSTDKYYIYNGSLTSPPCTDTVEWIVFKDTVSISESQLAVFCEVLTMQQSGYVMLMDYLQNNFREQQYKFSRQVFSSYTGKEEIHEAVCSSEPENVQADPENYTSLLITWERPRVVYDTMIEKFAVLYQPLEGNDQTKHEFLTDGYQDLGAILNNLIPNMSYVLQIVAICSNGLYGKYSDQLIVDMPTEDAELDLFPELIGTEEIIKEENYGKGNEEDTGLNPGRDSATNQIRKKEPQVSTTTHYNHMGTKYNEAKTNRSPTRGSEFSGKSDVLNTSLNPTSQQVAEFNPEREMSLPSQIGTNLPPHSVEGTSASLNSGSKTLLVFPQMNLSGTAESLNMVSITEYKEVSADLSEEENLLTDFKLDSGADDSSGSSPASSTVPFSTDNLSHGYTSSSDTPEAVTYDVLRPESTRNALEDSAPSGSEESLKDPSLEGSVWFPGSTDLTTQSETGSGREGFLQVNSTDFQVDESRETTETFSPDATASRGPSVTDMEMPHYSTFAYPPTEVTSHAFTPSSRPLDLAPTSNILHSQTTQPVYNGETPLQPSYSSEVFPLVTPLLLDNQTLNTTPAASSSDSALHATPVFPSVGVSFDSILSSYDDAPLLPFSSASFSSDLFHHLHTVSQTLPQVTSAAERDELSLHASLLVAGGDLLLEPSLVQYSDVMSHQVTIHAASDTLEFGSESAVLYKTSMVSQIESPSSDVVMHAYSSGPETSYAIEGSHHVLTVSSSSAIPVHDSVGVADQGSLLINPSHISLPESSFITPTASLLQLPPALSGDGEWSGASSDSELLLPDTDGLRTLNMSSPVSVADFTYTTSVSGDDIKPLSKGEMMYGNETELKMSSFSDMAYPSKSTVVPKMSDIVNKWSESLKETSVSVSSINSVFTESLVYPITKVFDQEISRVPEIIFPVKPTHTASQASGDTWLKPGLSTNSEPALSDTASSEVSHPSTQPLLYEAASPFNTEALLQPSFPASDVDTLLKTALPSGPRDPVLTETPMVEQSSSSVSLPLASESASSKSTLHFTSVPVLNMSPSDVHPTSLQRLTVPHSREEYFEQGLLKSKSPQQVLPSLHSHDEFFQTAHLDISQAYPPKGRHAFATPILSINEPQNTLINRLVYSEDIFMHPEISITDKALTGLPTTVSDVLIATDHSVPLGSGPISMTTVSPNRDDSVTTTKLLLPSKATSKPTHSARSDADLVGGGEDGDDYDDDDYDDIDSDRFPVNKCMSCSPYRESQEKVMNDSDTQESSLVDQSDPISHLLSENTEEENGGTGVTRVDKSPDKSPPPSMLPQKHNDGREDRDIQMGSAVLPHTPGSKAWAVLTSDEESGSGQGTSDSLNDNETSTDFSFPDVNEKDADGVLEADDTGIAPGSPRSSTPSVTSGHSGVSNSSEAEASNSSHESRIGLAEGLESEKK

Kd (phosphacan [1]) [nM]	Kd (phosphacan [2]) [nM]	Substance
0.5	–	N-CAM (from UniProt P13591)
–	0.5	Ng-CAM (from UniProt Q03696)
